Assay results: US6808930B1, “Therapeutic agents” (priority 1997, dated 2004)

Legend:
A549 cells [1] = assay: Cell viability by trypan blue exclusion; assay type: cell-based, human
Description: (§1) Remaining cells were analysed for DNA fragmentation.

HRTEC cells [2] = assay: Cell viability by trypan blue exclusion; assay type: cell-based, human
Description: as §1

A549 cells [3] = assay: Cell surface binding of biotinylated protein, flow cytometry; parameters: species or system human; conditions: biotinylated MAL, 30 min; second of three cell types (A549 by order)
Description: MAL, human α-lactalbumin (HLA) and immunoglobulin G were biotinylated according to the manufacturer's instructions or labelled with ^125I with the lactoperoxidase method. Proteins were dissolved in PBSA-T buffer (30 mM Na2HPO4, 120 mM NaCl, pH 7.4, with 0.1% NaAzid, 0.05% Tween-20) and 25 μl of protein (25 μg) was incubated with 2 μl of ^125([…]), 2 μl of lactoperoxidase (2.5 mg/ml) and 2 μl of H2O2 (diluted 1:2000 in PBS) for 2 min at room temperature. The reaction was stopped by the addition of 500 μl of PBSA-T. The labelled protein was purified on a PD-10 column. 500 μl fractions in PBSA-T were eluted and fractions containing radioactivity were stored at […]. […] L1210, A549 and HRTEC cells (3×10^6 cells/ml, 50 μl) were incubated in suspension with 50 μl of biotinylated MAL, ALA or BSA for various times at 37° C. The cells were washed with PBS by centrifugation at 320×g for 10 min and the supernatant was discarded. FITC-conjugated streptavidin (diluted 1:50 in PBS) was added and the cells were incubated for 30 min at room temperature. The cells were washed by centrifugation as above, suspended in 300 μl PBS and the surface fluorescence was analysed by flow cytometry on a Coulter Epics Profile II flow cytometer (Coulter Inc.), equipped with a 488 nm argon laser. Green fluorescence was detected with a 525 nm band pass filter. […]

A549 cells [4] = assay: Cell surface binding of 125I-labelled protein, cell associated radioactivity; parameters: species or system human; conditions: 30 min exposure to 2×10^6 cpm of 125I-labelled protein
Description: (§2) Cell surface binding of MAL was also quantitated as the cell associated radioactivity during the first 30 min after addition of ^125I-labelled MAL to the cells (FIG. 2B). […]

HRTEC cells [5] = assay: as above; parameters: species or system human; conditions: 30 min exposure to 2×10^6 cpm of 125I-labelled protein
Description: as §2

A549 cells [6] = assay: DNA fragmentation by gel electrophoresis and FIGE; assay type: cell-based, human
Description: as §1

HRTEC cells [7] = assay: DNA fragmentation by gel electrophoresis and FIGE; assay type: cell-based, human; conditions: 4 mg/ml for 24 h
Description: as §1

[8] = test system: digitonin-permeabilized L1210, A549 and HRTEC cells; assay: Nuclear uptake of biotinylated protein in digitonin-permeabilized cells; assay type: cell-based; conditions: digitonin treated cells, biotinylated MAL
Description: Digitonin permeabilizes the plasma nembrane, but leaves the nuclear membrane intact. […] Human IgG and monomeric α-lactalbumin were used as controls.
The digitonin-permeabilized L1210 cells were preincubated with 50 μg/ml of WGA for 20 minutes, washed and exposed to biotinylated MAL. IgG and α-lactalbumin were used as controls (FIG. 7).
The cells pretreated with WGA were then washed by centrifugation in NTB at 320×g for 10 min before addition of protein.

[9] = test system: digitonin-permeabilized cells; assay: DNA fragmentation in digitonin-permeabilized cells; assay type: cell-based; conditions: 0.4 mg/ml
Description: Briefly, 1×10^6 cells were incubated in 100 μl of nuclear transport buffer (NTB), with the addition of 1 μg/ml each of leupeptin, aprotinin, antipain, and 40 μg/ml of digitonin for 5 min at room temperature and washed by centrifugation at 320×g for 10 min in NTB. Biotinylated protein (5 μl, 5 mg/ml) was added to the cells in a total volume of 100 μl NTB supplemented with phosphcreatin, creatine phosphokinase and ATP, incubated for various time at RT and washed twice in NTB by centrifugation at 320×g for 10 min. The cells were treated with 0.2% Triton-X100 in NTB for 6 min and washed finally 1:100 dilution of fluorescein-conjugated strepatvidin was added for 30 min at RT and washed. The cells were then inspected by fluorescence microscopy in a Nikon Microphot (Japan) microscope or by laser scanning confocal microscopy in a BioRad MRC-1024 instrument.
When adding 0.4 mg/ml of MAL to digitonin-permeabilized cells, HMW DNA fragments were formed after 1 hour and oligonucleosomal fragments after 2 hours. […] IgG was not detected in isolated nuclei or in nuclei of digitonin-permabilized cells (FIG. 7a).

A549 cells [10] = assay: Nuclear uptake of biotinylated protein, confocal microscopy; assay type: cell-based, human
Description: To detect intracellular protein, the cells were fixed at various times after addition of 0.3 mg/ml of biotinylated MAL for 5 min in phosphate-buffered paraformaldehyde (4%) (B. Sander et al., Immunol. Rev. (1991) 119: 65-92) at room temperature, washed in PBS, and permeabilized with 0.1% saponin in PBS. FITC conjugated streptavidin (diluted 1:100 in 0.1% saponin) was added and the cells were incubated for 30 min at room temperature. The cells were washed twice in PBS-saponin and once in PBS, mounted on a glass slide and analysed in a Bio-Rad 1024 laser scanning confocal equipment (Bio Rad Laboratories, Hemel-Hempstead, UK) attached to a Nikon Diaphot inverted microscope.

L1210 cells [11] = assay: Cell surface binding of biotinylated protein, flow cytometry; parameters: species or system murine; conditions: biotinylated MAL
Description: MAL, human α-lactalbumin (HLA) and immunoglobulin G were biotinylated according to the manufacturer's instructions or labelled with ^125I with the lactoperoxidase method. Proteins were dissolved in PBSA-T buffer (30 mM Na2HPO4, 120 mM NaCl, pH 7.4, with 0.1% NaAzid, 0.05% Tween-20) and 25 μl of protein (25 μg) was incubated with 2 μl of ^125([…]), 2 μl of lactoperoxidase (2.5 mg/ml) and 2 μl of H2O2 (diluted 1:2000 in PBS) for 2 min at room temperature. The reaction was stopped by the addition of 500 μl of PBSA-T. The labelled protein was purified on a PD-10 column. 500 μl fractions in PBSA-T were eluted and fractions containing radioactivity were stored at […]. […] L1210, A549 and HRTEC cells (3×10^6 cells/ml, 50 μl) were incubated in suspension with 50 μl of biotinylated MAL, ALA or BSA for various times at 37° C. The cells were washed with PBS by centrifugation at 320×g for 10 min and the supernatant was discarded. FITC-conjugated streptavidin (diluted 1:50 in PBS) was added and the cells were incubated for 30 min at room temperature. The cells were washed by centrifugation as above, suspended in 300 μl PBS and the surface fluorescence was analysed by flow cytometry on a Coulter Epics Profile II flow cytometer (Coulter Inc.), equipped with a 488 nm argon laser. Green fluorescence was detected with a 525 nm band pass filter. The PMT voltage was initially set to 1250 V and adjusted for day to day variation using calibration with Immunobeads (Coulter).

[12] = test system: L1210, A549 and HRTEC nuclei; assay: DNA fragmentation in isolated nuclei; assay type: cell-based
Description: Nuclei were purified from L1210, A549 and HRTEC cells and incubated with low concentrations of MAL (0.2 and 0.4 mg/ml). The formation of HMW and oligonucleosome length DNA fragments was examined.
A549, L1210 and HRTEC nuclei were isolated from homogenised cells. Pellet 1 from the homogenisation was washed twice in nuclei buffer for 20 min at 100×g and suspended in nuclei buffer for experiments. Rat liver nuclei was isolated.
A549, L1210 or HRTEC nuclei in suspension were placed in individual wells in a 24-well plate ([…]), mixed with MAL, α-lactalbumin, lactoferrin or BSA (100 μl in nucleus buffer), incubated at 37° C. for 1 hour (L1210,) or 2 hours (A549 and HRTEC), harvested by aspiration, analysed for DNA fragmentation as described above.

L1210 cells [13] = assay: DNA fragmentation by gel electrophoresis and FIGE; assay type: cell-based, murine
Description: as §1

L1210 cells [14] = assay: Cell surface binding of 125I-labelled protein, cell associated radioactivity; parameters: species or system murine; conditions: 30 min exposure to 2×10^6 cpm of 125I-labelled protein
Description: as §2

[15] = stated for the three cell types
[16] = isolated nuclei from the three cell types, 0.2 and 0.4 mg/ml

B1: MAL: protein complex from human milk casein containing oligomeric forms of α-lactalbumin; the apoptosis-inducing fraction (protein, UniProt P00709 20-142, looked up)
Alpha-lactalbumin: KQFTKCELSQLLKDIDGYGGIALPELICTMFHTSGYDTQAIVENNESTEYGLFQISNKLWCKSSQVPQSRNICDISCDKFLDDDITDDIMCAKKILDIKGIDYWLAHKALCTEKLEQWLCEKL
modifications: oligomeric form from milk casein
notes: protein complex from human milk casein containing oligomeric forms of α-lactalbumin; the apoptosis-inducing fraction
In the case of B1, the “sensitivity to MAL-induced apoptosis” value (A549 cells [1]) is reported as “intermediately sensitive”, the cell viability (HRTEC cells [2]; HRTEC cells, 24 h incubation with up to 4 mg/ml) is reported as “remained fully viable” and the “sensitivity to MAL-induced apoptosis” value (HRTEC cells [2]; non-transformed cultures (HRTEC), within the tested concentration range) is reported as “resistant”. For the same molecule, the “fluorescence intensity of cell surface binding” value (A549 cells [3]) was 13.4 times that of the streptavidin control, the “cell surface binding, cell associated radioactivity” value (A549 cells [4]) was 20 000 cpm and the “cell surface binding, cell associated radioactivity” value (HRTEC cells [5]) was 18 000 cpm. The “concentration at which HMW fragmentation was maximal” value (A549 cells [6]) was 1500 µg/mL, the “concentration at which no chromosomal DNA was seen” value (A549 cells [6]) was 2.5 mg/mL and the “oligonucleosomal DNA fragmentation” value (A549 cells [6]) was “No oligonculeosomal fragmentation was detected”. For the same molecule, the “time at which HMW fragmentation was first detected” value (A549 cells [6]; 1.0 mg/ml) was 6 h, the “HMW DNA fragmentation” value (HRTEC cells [7]) was “did not undergo HMW DNA fragmentation” and the “time at which maximum nuclear levels were reached” value [8] was 20 min. For the same molecule, the “time after which HMW DNA fragments were formed” value [9] was 1 h, the “time after which oligonucleosomal fragments were formed” value [9] was 2 h and the “incubation time after which cytoplasmic, granular fluorescence was detected” value (A549 cells [10]; FIG. 3) was 3 h. For the same molecule, the “incubation time at which nuclear accumulation was maximal” value (A549 cells [10]; FIG. 3) was 24 h, the cytoplasmic staining (A549 cells [10]; biotinylated MAL) was “granular fluorescence evenly distributed throughout the cell” and the “cell nuclei stained brightly” value (A549 cells [10]; biotinylated MAL, longer incubation times (time not given)) was “About 15%”. For the same molecule, the “fluorescence intensity of cell surface binding” value (L1210 cells [11]; 30 min, first of three cell types (L1210 by order)) was 12.1 times that of the streptavidin control, the “time after which cell surface binding reached a maximum” value (L1210 cells [11]; [15]) was 30 min and the “time after which cell surface binding was detected” value (L1210 cells [11]; [15]) was 10 min. The “induction of DNA fragmentation in isolated nuclei” value ([12]; isolated nuclei) was “could induce DNA fragmentation”, the “time after which formation of HMW DNA fragments was enhanced” value [12, 16] was “one” and the “time after which formation of oligonucleosome length fragments was enhanced” value [12, 16] was 2 h. The “time at which fragmentation of DNA was first seen” value (L1210 cells [13]; 0.3 mg/ml) was 6 h, the “incubation time after which HMW DNA fragments were observed” value (L1210 cells [13]; 0.5 mg/ml) was 30 min and the “incubation time after which oligonucleosome length DNA fragments were detected” value (L1210 cells [13]; 0.5 mg/ml) was “three”. The “time at which fragmentation of DNA was seen” value (L1210 cells [13]; 0.75 mg/ml) was 2 h and the “cell surface binding, cell associated radioactivity” value (L1210 cells [14]) was 23 000 cpm.
